Experimental data taken from paper PMC11711316 (Nature Communications, 2025).

Assays:
[1] = target: T1, Rab3GAP2 (human, full length, C-terminal 3x-FLAG) (human, UniProt Q9H2M9 1-1393); assay: SEC
T1 sequence (looked up): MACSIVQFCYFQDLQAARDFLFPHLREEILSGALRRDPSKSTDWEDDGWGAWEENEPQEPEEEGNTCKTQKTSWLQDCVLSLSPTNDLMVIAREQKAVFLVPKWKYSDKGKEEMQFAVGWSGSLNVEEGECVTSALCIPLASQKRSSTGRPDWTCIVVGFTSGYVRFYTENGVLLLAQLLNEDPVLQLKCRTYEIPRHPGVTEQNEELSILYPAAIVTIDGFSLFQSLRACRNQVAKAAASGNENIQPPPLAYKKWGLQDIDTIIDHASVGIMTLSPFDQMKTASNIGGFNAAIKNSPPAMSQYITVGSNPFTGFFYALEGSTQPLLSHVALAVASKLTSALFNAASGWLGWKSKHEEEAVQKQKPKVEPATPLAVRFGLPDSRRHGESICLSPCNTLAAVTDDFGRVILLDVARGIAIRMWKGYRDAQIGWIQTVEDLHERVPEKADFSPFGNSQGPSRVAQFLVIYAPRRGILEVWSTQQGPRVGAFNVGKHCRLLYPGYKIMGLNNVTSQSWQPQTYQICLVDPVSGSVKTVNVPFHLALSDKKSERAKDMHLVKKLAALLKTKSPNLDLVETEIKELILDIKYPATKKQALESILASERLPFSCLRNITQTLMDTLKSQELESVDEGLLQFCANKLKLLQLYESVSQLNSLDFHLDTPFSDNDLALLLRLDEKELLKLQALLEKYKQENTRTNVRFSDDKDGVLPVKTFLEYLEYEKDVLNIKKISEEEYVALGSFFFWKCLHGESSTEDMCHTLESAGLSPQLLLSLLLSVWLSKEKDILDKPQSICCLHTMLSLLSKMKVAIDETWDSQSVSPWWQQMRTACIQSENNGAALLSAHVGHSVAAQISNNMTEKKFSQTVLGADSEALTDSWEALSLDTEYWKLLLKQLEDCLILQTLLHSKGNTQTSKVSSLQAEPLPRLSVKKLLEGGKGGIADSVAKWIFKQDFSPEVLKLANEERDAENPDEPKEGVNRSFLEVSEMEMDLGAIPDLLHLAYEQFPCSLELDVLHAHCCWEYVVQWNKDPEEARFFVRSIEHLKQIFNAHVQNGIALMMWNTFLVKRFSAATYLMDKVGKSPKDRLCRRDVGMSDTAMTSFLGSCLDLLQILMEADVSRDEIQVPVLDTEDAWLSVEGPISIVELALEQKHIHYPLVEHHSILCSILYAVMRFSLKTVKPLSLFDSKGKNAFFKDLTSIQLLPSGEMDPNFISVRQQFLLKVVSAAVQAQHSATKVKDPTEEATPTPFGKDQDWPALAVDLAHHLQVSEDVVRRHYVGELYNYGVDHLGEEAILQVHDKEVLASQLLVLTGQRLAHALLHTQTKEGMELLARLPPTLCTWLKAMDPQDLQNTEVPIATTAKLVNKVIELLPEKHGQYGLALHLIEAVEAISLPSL

[2] = target: T2, Rab3GAP2N (N-terminal domain of Rab3GAP2, 1-544) (human, UniProt Q9H2M9 1-544); assay: SEC
T2 sequence (looked up): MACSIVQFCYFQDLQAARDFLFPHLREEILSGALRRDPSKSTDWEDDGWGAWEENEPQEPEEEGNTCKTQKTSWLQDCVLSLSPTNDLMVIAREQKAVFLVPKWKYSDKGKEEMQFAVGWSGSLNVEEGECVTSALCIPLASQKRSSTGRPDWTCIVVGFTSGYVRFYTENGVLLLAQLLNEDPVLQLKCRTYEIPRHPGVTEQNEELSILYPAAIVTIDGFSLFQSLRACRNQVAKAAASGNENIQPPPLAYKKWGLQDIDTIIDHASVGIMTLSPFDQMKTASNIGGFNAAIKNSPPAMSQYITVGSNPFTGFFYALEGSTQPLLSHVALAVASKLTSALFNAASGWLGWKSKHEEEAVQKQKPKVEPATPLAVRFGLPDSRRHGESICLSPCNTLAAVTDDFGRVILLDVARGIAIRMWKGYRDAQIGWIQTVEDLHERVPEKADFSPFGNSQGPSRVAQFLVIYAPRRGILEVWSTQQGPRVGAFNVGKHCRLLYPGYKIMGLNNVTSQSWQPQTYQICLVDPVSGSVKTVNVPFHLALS

B1: Rab3GAP1 (human, full length, N-terminal TSP tag) (natural protein, UniProt Q15042 1-981, looked up)
chain: MAADSEPESEVFEITDFTTASEWERFISKVEEVLNDWKLIGNSLGKPLEKGIFTSGTWEEKSDEISFADFKFSVTHHYLVQESTDKEGKDELLEDVVPQSMQDLLGMNNDFPPRAHCLVRWYGLREFVVIAPAAHSDAVLSESKCNLLLSSVSIALGNTGCQVPLFVQIHHKWRRMYVGECQGPGVRTDFEMVHLRKVPNQYTHLSGLLDIFKSKIGCPLTPLPPVSIAIRFTYVLQDWQQYFWPQQPPDIDALVGGEVGGLEFGKLPFGACEDPISELHLATTWPHLTEGIIVDNDVYSDLDPIQAPHWSVRVRKAENPQCLLGDFVTEFFKICRRKESTDEILGRSAFEEEGKETADITHALSKLTEPASVPIHKLSVSNMVHTAKKKIRKHRGVEESPLNNDVLNTILLFLFPDAVSEKPLDGTTSTDNNNPPSESEDYNLYNQFKSAPSDSLTYKLALCLCMINFYHGGLKGVAHLWQEFVLEMRFRWENNFLIPGLASGPPDLRCCLLHQKLQMLNCCIERKKARDEGKKTSASDVTNIYPGDAGKAGDQLVPDNLKETDKEKGEVGKSWDSWSDSEEEFFECLSDTEELKGNGQESGKKGGPKEMANLRPEGRLYQHGKLTLLHNGEPLYIPVTQEPAPMTEDLLEEQSEVLAKLGTSAEGAHLRARMQSACLLSDMESFKAANPGCSLEDFVRWYSPRDYIEEEVIDEKGNVVLKGELSARMKIPSNMWVEAWETAKPIPARRQRRLFDDTREAEKVLHYLAIQKPADLARHLLPCVIHAAVLKVKEEESLENISSVKKIIKQIISHSSKVLHFPNPEDKKLEEIIHQITNVEALIARARSLKAKFGTEKCEQEEEKEDLERFVSCLLEQPEVLVTGAGRGHAGRIIHKLFVNAQRAAAMTPPEEELKRMGSPEERRQNSVSDFPPPAGREFILRTTVPRPAPYSKALPQRMYSVLTKEDFRLAGAFSSDTSFF
[1]
  stoichiometry N: 1
[2]
  stoichiometry N: 1
